Experimental data: paper PMC6954902 (Protein & Cell, 2019)

T1: MtEccCb1-ATPase3 (ATPase3 domain of EccCb1 from Mycobacterium tuberculosis, residues 315-591) (Mycobacterium tuberculosis H37Rv, UniProt P9WNB1 315-591)
T1 sequence: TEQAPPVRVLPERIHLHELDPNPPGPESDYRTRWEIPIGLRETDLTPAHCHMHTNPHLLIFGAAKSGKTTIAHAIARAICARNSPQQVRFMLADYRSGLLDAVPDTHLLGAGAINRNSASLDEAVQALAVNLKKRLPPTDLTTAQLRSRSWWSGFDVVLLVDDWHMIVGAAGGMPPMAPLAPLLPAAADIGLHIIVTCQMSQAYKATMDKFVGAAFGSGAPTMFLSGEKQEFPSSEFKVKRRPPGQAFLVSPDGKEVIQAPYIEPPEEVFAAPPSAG

B1: wild-type peptide corresponding to the C-terminal 16-residues of MtEsxB (peptide)
peptide: RADEEQQQALSSQMGF
notes: source: synthetic peptide
B2: MtEsxB (culture filtrate protein CFP-10 of Mycobacterium tuberculosis) (natural protein)
chain: MAEMKTDAATLAQEAGNFERISGDLKTQIDQVESTAGSLQGQWRGAAGTAAQAAVVRFQEAANKQKQELDEISTNIRQAGVQYSRADEEQQQALSSQMGF

Target: T1, MtEccCb1-ATPase3 (ATPase3 domain of …)
Test: ITC
Conditions: both partners purified

| Binder | Kd [µM] |
| --- | --- |
| B1 | 55 |
| B2 | 34 |
